Measured values published in the supplement of paper PMC9170038.

Test system: MS2 coat protein
Test: apparent KD of MS2 coat protein; designed switch direction (-1 OFF switch, 1 ON switch): -1; higher = weaker reporter binding
In short: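 SNAP-549-labelled MS2 coat protein was titrated, doubling from 0.7 or 1.5 nM to 3 µM, over designed RNA switches transcribed on Illumina chips by stalled E. coli RNA polymerase. Runs were done without input, with 200 uM small-molecule ligand, or with an oligonucleotide input. Apparent KD is the per-design median over clusters of curve-fitted normalised fluorescence.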

[1] = input ligand: microRNA oligo, concentration not stated
[2] = Eterna round: R95, input ligand: microRNA oligo, concentration not stated
[3] = Eterna round: R95, input ligand: FMN 200 uM
[4] = Eterna round: R95, input ligand: none

Row | Sequence | apparent KD of MS2 coat protein (input ligand: FMN 200 uM) [nM] | apparent KD of MS2 coat protein (input ligand: none) [nM] | apparent KD of MS2 coat protein [1] [nM] | apparent KD of MS2 coat protein [2] [nM] | apparent KD of MS2 coat protein [3] [nM] | apparent KD of MS2 coat protein [4] [nM]
1 | CCCUCGGGAGGAUAUGGGUGUUUUUACAUGAGGAUCACCCAUGUGGAGUAGCAUGUGGGUCCAGAAGGCCCAAGGG [-27.5, -25.8 kcal, 22% A] (Eterna round: R97, puzzle: Exclusion 5) | 873 | 815 |  |  |  | 
2 | CGAUAAAAGACAGGAUAUGAGGAGAGAGAGAGAUCAGAAGGGUCACAUGAGGAUCACCCAUGUGAGUUCUCGAUAAGAAACACC [Prohibition 53 - Jieux - Exclusion NG 1] (Eterna round: R96, puzzle: Exclusion NG 1) | 13.8 | 19.3 | 14.5 |  |  | 
3 | UACAUGAGGAUCACCCAUGUUUUGUCGUGUAUGGUACCCGUCUAGGAUAUCGUGUUAUUGGACCGCGAGAAGGAGAGUAUCAAU [Excl-NG3-LRO03] (Eterna round: R96, puzzle: Exclusion NG 3) | 26.4 | 33.5 | 20.2 |  |  | 
4 | UGAUCUAGCGGAGGAUAUACAUGAGGAUCACCCAUGUAUAGUCCAUGUGGUGACACGUGGAACAUGUAGAAGGCCGCUAGAUCU [JL ENG2 3.83] (Eterna round: R96, puzzle: Exclusion NG 2) | 228 | 23.1 | 24.8 |  |  | 
5 | ACAUCACAUGAGGAUCACCCAUGUCAGGAUAUUCAGCGUAGCAUGCUACCUAACAUCAGAAGAAGGGACACGUA [First Design] (Eterna round: R97, puzzle: Exclusion 1) | 64.5 | 68.2 |  |  |  | 
6 | UACGGGUCAGGAUAUGCGAGAGAGUGGGAAAUAGGAAGGUAGCAGAAGGGACAUGAGGAUCACCCAUGUGAGGC [JR_Exclu4_Sub099] (puzzle: Exclusion 4) |  |  |  | 23.8 |  | 
7 | UAUUCACAUGAGGAUCACCCAUGUCAGGAUAUAUUCGAUAUAUGGAAACAUAUAUCGAAUAGAAGGGACUAGCG [Jieuxxlusion 10 - Jieux - Exclusion 1] (Eterna round: R97, puzzle: Exclusion 1) | 54.6 |  |  |  |  | 
8 | GUAAUUGAUGUCAGGAUAUCAGGGCCACAAUGCUAUGAGAAGGGACAUGAGGAUCACCCAUGUAAAAGUUCAUG [BmEX4 B.16] (Eterna round: R97, puzzle: Brourd's mod of Exclusion 4) | 180 | 69.8 |  |  |  | 
9 | GGUUAUUGCAAGGAUAUGCUUUUUUUUUAUUUUGCAGAAGGUGCAACAUGAGGAUCACCCAUGUUGGAGGGUUU [JR_E6_Sub023] (puzzle: Exclusion 6) |  |  |  | 21.7 |  | 
10 | CAUCCACAUGAGGAUCACCCAUGUCAGGAUAUCGCGCGCGCGUUUUCGGUCUUUCGCGCGAGAAGGGACGACUG (puzzle: Exclusion 1) |  |  |  | 13.3 |  | 
11 | CUCAUUUGUCAGGAUAUCGUGUGGCUAAUUGUACGAGAAGGGACGACAUGAGGAUCACCCAUGUGGUCUUUGAG [JR_Ex6_Sub083] (Eterna round: R97, puzzle: Exclusion 6) | 196 | 54.8 |  |  |  | 
12 | CUGGUCCGAGGAUAUAUUAUGUGAAACAUGAGGAUCACCCAUGUAAUAUGAUGGAAAUAAAUAGAAGGCGGACUAG [Mat - Exclusion 5 - JL mod - D32] (puzzle: Exclusion 5) |  |  |  | 34.5 | 26 | 43.5
13 | AACUAAACAUGAGGAUAUGCCUGGGAAGAACAGGCAGAAGGCGUGACAUGAGGAUCACCCAUGUAGCCGGGCUAUUCUCAUGCG [Cediceor] (Eterna round: R96, puzzle: Exclusion NG 1) | 25.3 | 31.3 | 26.1 |  |  | 
14 | GUGAGUGGUCAGGAUAUGCUGUACAAAAGUACAGCAGAAGGGAUUACAUGAGGAUCACCCAUGUUUACUUCAUG [Omei Ex6 B4] (Eterna round: R97, puzzle: Exclusion 6) | 125 | 90.2 |  |  |  | 
15 | CUCAGGUGAGGAUAUGCUUAAGGAUCGGUACACCGACACCUGUAGAAGGCACAUGAGGAUCACCCAUGUUAGGC [Eternabot (L1) Solution 68] (Eterna round: R97, puzzle: Exclusion 4) | 30.1 | 27.9 |  |  |  | 
16 | AUAAUGUGAGGAUAUCAGUCGUACAGCUGCGGCUGUACGACUGAGAAGGCACAUGAGGAUCACCCAUGUGGUCA [E4/5-A3] (Eterna round: R97, puzzle: Exclusion 4) | 70.7 | 672 |  |  |  | 
17 | CUUUUGUGAGGAUAUCAGUAGUAUAUAAAUAAAAUUACUACUGAGAAGGCACAUGAGGAUCACCCAUGUUCCUC [salish99_ex3_r3_076] (puzzle: Exclusion 4) |  |  |  | 35.5 |  | 

Row | Sequence | apparent KD of MS2 coat protein (input ligand: FMN 200 uM) [nM] | apparent KD of MS2 coat protein (input ligand: none) [nM] | apparent KD of MS2 coat protein [1] [nM] | apparent KD of MS2 coat protein [2] [nM] | apparent KD of MS2 coat protein [3] [nM] | apparent KD of MS2 coat protein [4] [nM]
18 | UUAAUUAAUUUAAUAUAAGAUCACAUGAGGAUCACCCAUGUAUAGGAUAUCAGCUCGUUUAGAGCUGAGAAGGAUACAUAAUAU [ExNG3/2-B2] (Eterna round: R96, puzzle: Exclusion NG 3) | 292 | 230 | 328 |  |  | 
19 | AGAUGGCGAGGAUAUACAUGAGGAUCACCCAUGUGAAGAUAAAGAGUGAGGAAGAAAAGUAGAAGGCGCUGUCA [Mat - Exclusion 3 - Mod of Salish D28] (puzzle: Exclusion 3) |  |  |  | 106 | 351 | 123
20 | ACAUGAGGAUCACCCAUGUGACCACGAUGGCUGAUGUAAAGACAGGAUAUGUGUGAAUAUCUAACACAGAAGGGUCUUGACUGG [Deportation 56 - Jieux - Exclusion NG 3] (Eterna round: R96, puzzle: Exclusion NG 3) | 33.8 | 33.2 | 32.6 |  |  | 
21 | CUAUUGUGAGGAUAUCAGGUGUGCUAGCGUACUGGUACAUCUGAGAAGGCACAUGAGGAUCACCCAUGUUUCUU [JL-ex4-3.20 Brourd mod] (puzzle: Exclusion 4) |  |  |  | 18.4 |  | 
22 | CGAUAAAAGACAGGAUAUGAGGAGAGAGAGAGAUCAGAAGGGUCACAUGAGGAUCACCCAUGUGAGUUCUCGAAAUUAAAUAUU [Prohibition 50 - Jieux - Exclusion NG 1] (Eterna round: R96, puzzle: Exclusion NG 1) | 18.8 | 18.8 | 14.2 |  |  | 
23 | UUAUAAAGUGUGAGGAUAUGCUGGUCGAUAGAUCAGCAGAAGGCACAUGAGGAUCACCCAUGUAAUAUAUUUUU [Mat - Exclusion 4 - JL Mod - D44] (puzzle: Brourd's mod of Exclusion 4) |  |  |  | 45.1 |  | 
24 | ACGAUGACCGAAAAGUGUAAACUGACAUGAGGAUCACCCAUGUAGGAUAUGGCUACGAAAAGUAGUCAGAAGGGCAUGUCAUCA [Omei Exc(NG) 3 Av9] (Eterna round: R96, puzzle: Exclusion NG 3) | 16 | 20.9 | 16.4 |  |  | 
25 | AAUUAGCAAGCGAGAUCCCACAUGAGGAUCACCCAUGUGCUCGUCUUAUAUAAGGUACUGUACGAGAGUACGGUACC [Mat - Sensor, turn-off var - Eli Mod - D30] (Eterna round: R97, puzzle: Sensor, turn-off variant 1) | 12.1 | 10.6 |  |  |  | 
26 | AAGUAUAGAGGAUAUAGUAGUUACAACAUGAGGAUCACCCAUGUUCUUCAUAACGUAGAUCUAGAAGGCUGAUAAA [EX-5 Malc#29] (puzzle: Exclusion 5) |  |  |  | 114 | 145 | 140
27 | AGCCUACAUGAGGAUCACCCAUGUCAGGAUAUCUCGCGGCGCGUCAAGUUCACGCCGCAGAGAAGGGACUCGGG [Ceusxeatis] (puzzle: Exclusion 1) |  |  |  | 37.6 |  | 
28 | AAAUGAUGUCAGGAUAUUGACGUUAAAAGAACGCAAGAAGGGACAACAUGAGGAUCACCCAUGUGGUCCUAUAA [Bira] (puzzle: Exclusion 6) |  |  |  | 13 |  | 
29 | AAUAACAAGCCGAUCCUAAACAUGAGGAUCACCCAUGUGCUCGUCUUGUAAAGUACUAUCACGAAAGUGAUAGUACA (Eterna round: R96, puzzle: Sensor v3, turn-off variant 1) | 18.1 | 19.3 | 220 |  |  | 
30 | UAUAUAUAGUAAGGAUAUGUAUAUAUAUUAUAAACAGAAGGUACUGACAUGAGGAUCACCCAUGUUUUAGUGUGGGCAUGUAGA [JMF's solution 58] (Eterna round: R96, puzzle: Exclusion NG 1) |  |  | 53.8 |  |  | 
31 | UAUCGGGACUGAGGAUAUUCGUUCGAGCACGAAGAAGAAGGUAGUGUCAGGGACAUGAGGAUCACCCAUGUGAUUUCAGUCCCA [JL ViennaUCT Erinle mod 6] (Eterna round: R96, puzzle: Exclusion NG 1) | 91.4 | 133 | 102 |  |  | 
32 | GAGACAUGAGGAUCACCCAUGUGUGGUCCAAGGCAUGUCGUCGAGGAUAUGCAGGACGUCGUCUUGCAGAAGGCGACUAAAUAC [Teatarti] (Eterna round: R96, puzzle: Exclusion NG 3) | 17.8 | 105 | 19.5 |  |  | 
33 | GGGUGACAUGAGGAUCACCCAUGUCAGGAUAUGGGCCCGGGCCCGAAAGGGUUUGGGCCCAGAAGGGACUGCCC [-44.5, -43.5 kcal, 22%A (-3 GC series)] (Eterna round: R97, puzzle: Exclusion 1) | 145 | 50.3 |  |  |  | 
34 | GAUUAUGCGAGCUUUAGGGACAUGAGGAUCACCCAUGUUCGUCUUAUUAGUCUAGAUGCACUGACAUACCUAAAUCU [JMF 78] (puzzle: Sensor v3, turn-off variant 1) |  |  |  | 19.6 | 15 | 14.4
